Consider 41 sequences from the nanobody polyreactivity screen of Harvey et al. (2022).

A short description of the data set: yeast display, Sf9 membrane polyspecificity reagent, FACS + sequencing; frameworks hold sequencing errors. A digest of the protocol: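 A synthetic nanobody library was expressed on Saccharomyces cerevisiae BJ5465 by galactose induction for 36–48 hours. The library was stained for 1 hour at 4 °C with 10% biotinylated, detergent-solubilized Sf9 membrane reagent and enriched with streptavidin microbeads before FACS. Low and high (top ~1%) gates were set on anti-HA fluorescence for expression and streptavidin fluorescence for reagent binding, and each polyreactivity label reflects the gate of origin.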
Turning to “QVQLVESGGGLVQAGGSLRLSCAASGFSFPPYAMGWYRQAPGKERELVAAITTSGGSTYYADSVKGRFTISRDNAKNTVYLQMNSMKPEDTAVYYCAADWRYLGYTAMDYWGQGTQVTVSS”, the “polyreactivity (PSR sort gate)” value is reported as “low polyreactivity”.

“QVQLVESGGGLVQAGGSLRLSCAASGFSVYPYAMGWYRQAPGKERELVAAISSSGGSTYYADSVKGRFTISRDNAKNTVYLQMNSLKPEDTAVYYCNKRPQQYRPGYDYWGQGTQVTVSS”: the “polyreactivity (PSR sort gate)” value is recorded as “high polyreactivity”.

Take “QVQLVESGGGLVQAGGSLRLSCAASGFTCSTYAMGWYSQAPGKERELVAVISWNGGSTYYADSVKGRFTISRDNANNTVYLQMNSLKPEDTAVYYCDARGSFKQGYWGQGTQVTVSS”: the “polyreactivity (PSR sort gate)” value is reported as “high polyreactivity”.

For the sequence “QVQLVESGGGLVQAGGSLRLSCAASGFTCTRYAMGWYRQAPGKERELVATITGGGRTNYADSVKGRFTISRDNAKNTVYLQMNSLKPEDTADYYCNAKYRVYWGSGKFDYWGQGSQVTVSS”, the “polyreactivity (PSR sort gate)” value is “high polyreactivity”.

“QVQLVESGGGLVQAGGSLRLSCAASGFTCTYYAMGWYRQAPGKERELVAAITRGGITNYADSVKGRFTISRDNAKNTVYLQMNSLKPEDTAVYYCAADYWNFNWRYKLYRPYDYWGQGTQVTVSS”: the “polyreactivity (PSR sort gate)” value is “high polyreactivity”.

“QVQLVESGGGLVQAGGSLRLSCAASGFTFAFNAMGWYRQAPGKERELVAAISGTVSRTRYADSVKGRFTISRDNAKNTVYLQMNSLKPEDTAVYYCAARGYYRYSYPYQPYRMDYWGQGTQVTVSS”: the “polyreactivity (PSR sort gate)” value was “high polyreactivity”.

As for “QVQLVESGGGLVQAGGSLRLSCAASGFTFAGNAMGWYRQAPGKERELVAGISRRGGNTYYADSVKGRFTISRDNAKNTVYLQMISLKPEDTAVYYCAARARRRYYYWGQGTQVTVSS”, the “polyreactivity (PSR sort gate)” value is listed as “high polyreactivity”.

As for “QVQLVESGGGLVQAGGSLRLSCAASGFTFAGYAMGWYRQAPGKERELVAAISYSGGRTYYADSVKGRFTISRDNEKNTVYLQMNSLKPEDTAVYYCNADPAYYRGYYRQGYDYWGQGTQVTVSS”, the “polyreactivity (PSR sort gate)” value was “high polyreactivity”.

Regarding “QVQLVESGGGLVQAGGSLRLSCAASGFTFAGYAMGWYRQAPGKERELVAGIRSSGARTYYADSVKGRFTISRDNAKNTVYLQMNSLKPEDTAVYYCAKTDGFYRGYGYWGQGTQVTVSS”, the “polyreactivity (PSR sort gate)” value was “low polyreactivity”.

As to “QVQLVESGGGLVQAGGSLRLSCAASGFTFAKNAMGWYRPAPGKERELVATISRSGGSTYYADSVKGRFTISRDNAKNTVYLQMNSLKPEDTAVYDCAADRSYGVLGNEGGYWGQGTQVTVSS”, the “polyreactivity (PSR sort gate)” value is “high polyreactivity”.

For “QVQLVESGGGLVQAGGSLRLSCAASGFTFAKYVMGWYRQAPGKERELVAAISFSGGSTYYADSVKGRFTISRDNAKNTVYLQMNSLKPEDTAVYYCAALSDSRWHRFGYWGQGTQVTVSS”, the “polyreactivity (PSR sort gate)” value is on record as “high polyreactivity”.

In the case of “QVQLVESGGGLVQAGGSLRLSCAASGFTFAMNAMGWYRQAPGKERELVAAITFSGGSTYADSVKGRFTISRDNAKNTVYLQMNSLKPEDTAVYYCNAGGDGVATGYDYWGQGTQVTVSS”, the “polyreactivity (PSR sort gate)” value is reported as “low polyreactivity”.

As to “QVQLVESGGGLVQAGGSLRLSCAASGFTFANPMGWYRQAPGKERELVAAISSGGGSTYYADSVKGRFTISRDNAKNTVYLQMNSLKPEDTAVYYCAAGYGTLDWWEDYWGQGTQVTVSS”, the “polyreactivity (PSR sort gate)” value is given as “high polyreactivity”.

Consider “QVQLVESGGGLVQAGGSLRLSCAASGFTFANYVMGWSRQAPGKERELVAAITTPGGSTSYADSVKGRFTISRDNAKNTVYLQMNSLKPEDTAVYYCNKTTYYPSDYDYWGQGTQETVSS”, for which the “polyreactivity (PSR sort gate)” value is on record as “low polyreactivity”.

Regarding “QVQLVESGGGLVQAGGSLRLSCAASGFTFARYAMGWYIQAPGKERELVASISGSGESTYYADSVKGRFTISRDNAKNTVYLQMNSLKPEDTAVYYCAAEGSFLFFSWYWPEYDYWGQGTQVTVSS”, the “polyreactivity (PSR sort gate)” value was “high polyreactivity”.

Consider “QVQLVESGGGLVQAGGSLRLSCAASGFTFARYAMGWYRQAPGKERELVAAISWTGARTYYADSVKGRFTISRDNAKNTVYLQMNSLKPEDTAVYYCNAVSGSSNFDYWGQGTQVTVSS”, for which the “polyreactivity (PSR sort gate)” value is listed as “high polyreactivity”.

For “QVQLVESGGGLVQAGGSLRLSCAASGFTFARYTRVWSRQAPGKERELVAAISKRGTSTYYADSVKGRFTISRDNAQNTVYLQMNSLKAEDTAVYYCAATPGTGYGDYDYWGQGTQVTVSS”, the “polyreactivity (PSR sort gate)” value is reported as “high polyreactivity”.

As to “QVQLVESGGGLVQAGGSLRLSCAASGFTFARYVMGWSRQAPGKERELVAGITYRVGSTYYADSVKGRFSISRDNAKNTVYLQMNSLKPEDTAVYYCAAYLSTGYYYWGQGTQVTVSS”, the “polyreactivity (PSR sort gate)” value is “high polyreactivity”.

For “QVQLVESGGGLVQAGGSLRLSCAASGFTFASNAMGWYRQAPWKERELDAGISRTGTTTYYADSVKGRFTISRDNAKNTVYLQMNSLKPEDTAVYYCAASKQAVKYRSQRYYYWGQGTQVTVSS”, the “polyreactivity (PSR sort gate)” value is on record as “high polyreactivity”.

Consider “QVQLVESGGGLVQAGGSLRLSCAASGFTFASYAMGCYIQPPGKEMELVAAITWSGGSTYYADSVKGRFTISRDNAKNTVYLQMNSLKPEDTAVYYCNALVIARNIEMDYWGQGTQVTVSS”, for which the “polyreactivity (PSR sort gate)” value is on record as “high polyreactivity”.

Turning to “QVQLVESGGGLVQAGGSLRLSCAASGFTFASYAMGWYRQAPGKERELVAAITRRGGSTNYADSVKGRFTISRDNAKNTVFLQMNSLKPEDTAVYYCNALHGVWYPAYDYWGQGTQVTVSS”, the “polyreactivity (PSR sort gate)” value is on record as “low polyreactivity”.

With “QVQLVESGGGLVQAGGSLRLSCAASGFTFAVYAMGWYRQAPGKERELVAAISRSGTRTYYADSVKGRFTISRDNAKNTVFLQMNSLKPEDTAVYYCAADKYRHGYDYWGQGTQVTVSS”, the “polyreactivity (PSR sort gate)” value is listed as “low polyreactivity”.

For the sequence “QVQLVESGGGLVQAGGSLRLSCAASGFTFAWYAMGWYRQAPGKERELVAAISWSGGRTYYADSVKGRFTISRDNAKNTVYLQMNSLKPEDTAVYYCAALFLYGYVREYDYWGQGTQVTVSS”, the “polyreactivity (PSR sort gate)” value is listed as “high polyreactivity”.

Take “QVQLVESGGGLVQAGGSLRLSCAASGFTFAYIAMGWYRQAPGKERELVAAITVSGGRTYYADTVKGRFTISRDNAKNTVYLQMYSLKPEDTAVYYCAATVRVRTNSWMDYWGQGTQVTVSS”: the “polyreactivity (PSR sort gate)” value is reported as “low polyreactivity”.

In the case of “QVQLVESGGGLVQAGGSLRLSCAASGFTFAYYAMGWYRPAPGKERELVAAISSGGSTDYADSVKGRFTISRDNAKNTVYLQMNSLKPEDTAVYYCNAVVVRLWYDYDYWGQGTQVTVSS”, the “polyreactivity (PSR sort gate)” value is “low polyreactivity”.

For the sequence “QVQLVESGGGLVQAGGSLRLSCAASGFTFAYYAMGWYRQAPGKERELVAAISSGGGTYYADSVKGRFTISRDNAKNTVYLQMNSLKPEDTAVYYCNAANGRYIGSRYVVYTGFYYWGQGTQVTVSS”, the “polyreactivity (PSR sort gate)” value was “high polyreactivity”.

As for “QVQLVESGGGLVQAGGSLRLSCAASGFTFAYYAMGWYRQAPGKERELVATITSGGRTYYADSVKGRFTISSDNAKNTVYLQMNSLKPEDTAVYYCAATGRSGVLSSYYYWGQGTQVTVSS”, the “polyreactivity (PSR sort gate)” value is “high polyreactivity”.

In the case of “QVQLVESGGGLVQAGGSLRLSCAASGFTFAYYAMGWYRQAPRKESELVAGISWRGGRTYYADSVKGRFTISRDNAKNTVYLQMNSLKPEDTAVYYCAKQPGNFGRFDYWGQGTQVTVSS”, the “polyreactivity (PSR sort gate)” value is “high polyreactivity”.

For the sequence “QVQLVESGGGLVQAGGSLRLSCAASGFTFDDNAMGWYRQAPGKERELVATISYSDGNTYYADSVKGRFTISRDNAKNTVYLQMNSLIPEDTAVYYCAADDWAVYYIGLDYDYWGQGTQVTVSS”, the “polyreactivity (PSR sort gate)” value was “low polyreactivity”.

“QVQLVESGGGLVQAGGSLRLSCAASGFTFDDNAMGWYRQAPGKERELVATISYSDGNTYYADSVKGRFTISRDNAKNTVYLQMNSLKPEDTAVYYCAADEWAVYYIGLDYDYWGQGTQVTVSS”: the “polyreactivity (PSR sort gate)” value was “low polyreactivity”.

Regarding “QVQLVESGGGLVQAGGSLRLSCAASGFTFDENAMGWYRQAPGINYSGASTYYADSVKGRFTISRDNAKNTVYLQMNSLKADDTAVYYCAAEVVAQMNYWGQGTQVTVSS”, the “polyreactivity (PSR sort gate)” value was “low polyreactivity”.

Regarding “QVQLVESGGGLVQAGGSLRLSCAASGFTFDENAMGWYRQAPGINYSGASTYYADSVMGRFTFSRDNAKNTVYLQMNSLKPEDTAVYYCAAEVVAQMNYWGQGTQVTVSS”, the “polyreactivity (PSR sort gate)” value was “low polyreactivity”.

In the case of “QVQLVESGGGLVQAGGSLRLSCAASGFTFDFYAMGWYRQAPGKERELVAAISKNDGTTYYADSVKGRFTISRDNAKNTVYLQMNSLKPEDTAVYYCAAESGYAVYTYVSSGDYWGQGTQVTVSS”, the “polyreactivity (PSR sort gate)” value is reported as “low polyreactivity”.

Consider “QVQLVESGGGLVQAGGSLRLSCAASGFTFDFYAMGWYRQAPGKERELVADISSSDGSTYADSVKGRFTISRDNAKNTVYLQMNSLKPEDTAVYYCAADYDNQYDFSLDDEYWGQGTQVTVSS”, for which the “polyreactivity (PSR sort gate)” value is given as “low polyreactivity”.

Regarding “QVQLVESGGGLVQAGGSLRLSCAASGFTFDGNAMGWYRQAPGKERELVATITSGGNTKYADSVKGRFTISRDNAKNTVYFQMNSLKPEDTAVYYCAAAQYNYRRFNYWGQGTQVTVSS”, the “polyreactivity (PSR sort gate)” value is “low polyreactivity”.

“QVQLVESGGGLVQAGGSLRLSCAASGFTFDINAMGWYRQAPGKERELVADITSGGTTDYADSVKGRFTISRDNAKNTVYLQMNSLKPEDTADYYCAAEVLDAYYGDDYWGQGTQVTVSS”: the “polyreactivity (PSR sort gate)” value was “high polyreactivity”.

In the case of “QVQLVESGGGLVQAGGSLRLSCAASGFTFDIYGMGWYRQAPGKERELVASITSRSARTYYADSVKGRFTISRYNAKNTVYLQMNSLKPEDTAVYYCAADTTIKRKYLAIRGYWGQGTQVTVSS”, the “polyreactivity (PSR sort gate)” value is “high polyreactivity”.

Turning to “QVQLVESGGGLVQAGGSLRLSCAASGFTFDKNVMGWYRQAPGKERELVAAISVRGGTTYYADSVKGRFTISRDNAMNTVYLQMNSLKPEDTAVYYCAARAYGPPARYDSWGQGTQVTVSS”, the “polyreactivity (PSR sort gate)” value is “low polyreactivity”.

For the sequence “QVQLVESGGGLVQAGGSLRLSCAASGFTFDKYAMGWYRQAPGKERELVAAISSSGGSTYYADSVKGRFTISRDNAKNTVYLQMNSLKPEDTAVYYCATGRIRWYARYDYWGHGTQVTVSS”, the “polyreactivity (PSR sort gate)” value is given as “high polyreactivity”.

Turning to “QVQLVESGGGLVQAGGSLRLSCAASGFTFDQNAMGWYRQAPGKERELVAAISVGGGSTYYADSVKGRFTISRDNAKNTVYLQMNSLKPEDTAVYYCAASYVYPASFHYYYWGQGTQVTVSS”, the “polyreactivity (PSR sort gate)” value is “high polyreactivity”.

Consider “QVQLVESGGGLVQAGGSLRLSCAASGFTFDRNAMGWYRQAPGKERELVATISQSGTNTYYADSVKGRFTISRDNAKNTVYLQMNSLKPEDTAVYYCNARYIFYRYDYWGQGTQVTVSS”, for which the “polyreactivity (PSR sort gate)” value is on record as “low polyreactivity”.
